Test results taken from US20130266958A1 (INTERNATIONAL INSTITUTE OF CANCER IMMUNOLOGY, published 2013).

Key:
Assay in all cases: HPLC folding test (Superdex 200), HLA class II monomer protein with 50-fold molar peptide, against solvent only
[1] = molecular target: T1, HLA class II monomer protein DRB1* 1501 (human)
T1 construct: Soluble MHC class II monomer protein used in the HPLC folding test; also called HLA-DRB1* 1501 molecule
Procedure: (§1) After reacting the solution at 37° C., the retention time was analyzed using HPLC.
(§2) As a folding buffer, a 10% amount of a mixed solution of an HLA class II monomer protein and a peptide was added. The amount of the folding buffer added was calculated using the following calculation equation.
(§3) To a glass vial charged with an HLA class II monomer protein, a peptide solution and a folding buffer were added in a calculated amount, and the mixture was allowed to stand at 37° C. overnight. HPLC (Waters 2695 Separation Module) was started, and a Seperdex 200 column was equilibrated with an equilibrating buffer. To all samples, 300 μL of the equilibrate buffer was added and well mixed, and a 100 μL portion of the mixture was used as a sample injection volume to calculate the retention time. Analysis time was 50 minutes. The criterion for the folding of an HLA class II monomer protein with a peptide is a shift of the retention time of not less than 0.1 minute as compared with a control (solvent only).

[2] = molecular target: T2, HLA class II monomer protein DRB1* 0101 (human)
T2 construct: Soluble MHC class II monomer protein used in the HPLC folding test
Procedure: as §1, §2, §3

[3] = molecular target: T3, HLA class II monomer protein DRB1* 0405 (human)
T3 construct: Soluble MHC class II monomer protein used in the HPLC folding test
Procedure: as §1, §2, §3

[4] = molecular target: T4, HLA class II monomer protein DRB1* 0803 (human)
T4 construct: Soluble MHC class II monomer protein used in the HPLC folding test; also called HLA-DRB1* 0803 molecule
Procedure: as §1, §2, §3

[5] = molecular target: T5, HLA class II monomer protein DRB1* 0901 (human)
T5 construct: Soluble MHC class II monomer protein used in the HPLC folding test; also called HLA-DRB1* 0901 molecule
Procedure: as §1, §2, §3

[6] = molecular target: T6, HLA class II monomer protein DRB1* 1502 (human)
T6 construct: Soluble MHC class II monomer protein used in the HPLC folding test; also called HLA-DRB1* 1502 molecule
Procedure: as §1, §2, §3

[7] = molecular target: T7, HLA class II monomer protein DRB4* 0101 (human)
T7 construct: Soluble MHC class II monomer protein used in the HPLC folding test
Procedure: as §1, §2, §3

Measured: degree of shift of the retention time

B1: WT1-332 (a peptide consisting of the amino acid sequence depicted in SEQ ID NO:2) (peptide)
peptide: KRYFKLSHLQMHSRKH
notes: Synthetic peptide; part of human WT1 protein; also called WT1 peptide
≥ 0.1 min: [1] | [2] | [3] | [4] | [5] | [6] | [7]
